Source: the supplement of paper PMC9732359
± gives the uncertainty stated by the source.

Assay: protein stability index of a GFP-peptide fusion (yeast GPS) (PSI 1-4); higher = more stable; sorted into four equal gates, so the index is relative within each strain
Summary of the method: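 Each library plasmid carries Cherry plus GFP with a tiled 17-residue yeast protein peptide fused downstream, and the pooled library was carried in yeast. Mid-log cultures in leucine-free medium were sorted into four equal gates by GFP/Cherry ratio. Reads from Illumina sequencing of PCR-amplified plasmids from each gate were assigned to strains by barcodes. Per peptide, the protein stability index was computed as the summed products of gate read frequency and gate number.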

SYALSMEKDKLKNLLRS [SNU114]
protein stability index (doa10∆): 2.97 ± 0.25 | protein stability index (pdr5∆): 2.24 ± 0.1 | protein stability index (san1∆): 2.31 ± 0.16 | protein stability index (ubr1∆): 2.68 ± 0.13

AFHLHCINKWIKTRDAC [HRT1]
protein stability index (doa10∆): 1.86 ± 0.089 | protein stability index (pdr5∆): 2 ± 0.076 | protein stability index (san1∆): 1.66 ± 0.14 | protein stability index (ubr1∆): 2.19 ± 0.065

GKTSFFQALGVPTKIAR [RPP0]
protein stability index (doa10∆): 3.24 ± 0.1 | protein stability index (pdr5∆): 3.29 ± 0.091 | protein stability index (san1∆): 2.98 ± 0.11 | protein stability index (ubr1∆): 3.26 ± 0.071

CFMHLLVQLFLWDSKEL [RPN3]
protein stability index (doa10∆): 1.23 ± 0.078 | protein stability index (pdr5∆): 1.6 ± 0.064 | protein stability index (san1∆): 1.61 ± 0.15 | protein stability index (ubr1∆): 1.54 ± 0.15

NFIIWINSIDTTESSDL [GRR1]
protein stability index (doa10∆): 2.46 ± 0.044 | protein stability index (pdr5∆): 2.38 ± 0.047 | protein stability index (san1∆): 2.61 ± 0.055 | protein stability index (ubr1∆): 2.88 ± 0.037

RATTYEKLTMVFQDNVY [SIN4]
protein stability index (doa10∆): 2.2 ± 0.065 | protein stability index (pdr5∆): 2.48 ± 0.051 | protein stability index (san1∆): 2.21 ± 0.11 | protein stability index (ubr1∆): 2.53 ± 0.057

DEPMTTFYKCVNCGHRW [RPC11]
protein stability index (doa10∆): 2.84 ± 0.16 | protein stability index (pdr5∆): 2.5 ± 0.082 | protein stability index (san1∆): 2.17 ± 0.15 | protein stability index (ubr1∆): 2.82 ± 0.086

TLFSSIEPQVINYLALN [ECM29]
protein stability index (doa10∆): 2.31 ± 0.07 | protein stability index (pdr5∆): 2.64 ± 0.096 | protein stability index (san1∆): 2.29 ± 0.21 | protein stability index (ubr1∆): 2.09 ± 0.082

SPDKIGTFTADYSKPNL [SSN2]
protein stability index (doa10∆): 2.81 ± 0.094 | protein stability index (pdr5∆): 3 ± 0.066 | protein stability index (san1∆): 2.65 ± 0.08 | protein stability index (ubr1∆): 2.92 ± 0.064

IPPTFDKGAVGPNNFIW [MED4]
protein stability index (doa10∆): 3.22 ± 0.091 | protein stability index (pdr5∆): 3.01 ± 0.084 | protein stability index (san1∆): 2.77 ± 0.082 | protein stability index (ubr1∆): 3.14 ± 0.11

MSDFQKEKVEEQEQQQQ [RPS20]
protein stability index (doa10∆): 2.87 ± 0.15 | protein stability index (pdr5∆): 3.17 ± 0.15 | protein stability index (san1∆): 3.16 ± 0.08 | protein stability index (ubr1∆): 3.51 ± 0.085

FPTRLGQGYRKVGIWPY [YJL039C/NUP192]
protein stability index (doa10∆): 3.49 ± 0.17 | protein stability index (pdr5∆): 3.25 ± 0.14 | protein stability index (san1∆): 2.96 ± 0.12

KTFKNPKYESLKLEYYN [RPN5]
protein stability index (doa10∆): 2.11 ± 0.083 | protein stability index (pdr5∆): 1.49 ± 0.089 | protein stability index (san1∆): 1.09 ± 0.23 | protein stability index (ubr1∆): 1.25 ± 0.058

AIQFVKENELLFGEKSI [YCS4]
protein stability index (doa10∆): 2.19 ± 0.098 | protein stability index (pdr5∆): 2.09 ± 0.064 | protein stability index (san1∆): 2.58 ± 0.16 | protein stability index (ubr1∆): 1.92 ± 0.069

MIIDEGHRMKNAQSKLS [SNF2]
protein stability index (doa10∆): 1.45 ± 0.072 | protein stability index (pdr5∆): 1.98 ± 0.061 | protein stability index (san1∆): 1.67 ± 0.089 | protein stability index (ubr1∆): 1.93 ± 0.089

LEATWNFIEPGINQILG [CDC53]
protein stability index (doa10∆): 2.95 ± 0.29 | protein stability index (pdr5∆): 2.75 ± 0.27 | protein stability index (san1∆): 3.38 ± 0.1 | protein stability index (ubr1∆): 3.08 ± 0.12

LSEWEEYLKGSESQLNS [YCS4]
protein stability index (doa10∆): 3.44 ± 0.13 | protein stability index (pdr5∆): 3.65 ± 0.13 | protein stability index (san1∆): 3.46 ± 0.12 | protein stability index (ubr1∆): 3.49 ± 0.1

QKMAKAKKQNRPLPQWI [RPL39]
protein stability index (doa10∆): 2.97 ± 0.13 | protein stability index (pdr5∆): 3.07 ± 0.057 | protein stability index (san1∆): 3 ± 0.081 | protein stability index (ubr1∆): 3.14 ± 0.059

MAREHAPSIIFMDEIDS [RPT6]
protein stability index (doa10∆): 2.14 ± 0.073 | protein stability index (pdr5∆): 2.11 ± 0.077 | protein stability index (san1∆): 2.54 ± 0.099 | protein stability index (ubr1∆): 2.42 ± 0.059

IPVNKRRGAHGSELSSK [SIR3]
protein stability index (doa10∆): 3 ± 0.15 | protein stability index (pdr5∆): 3.03 ± 0.15 | protein stability index (san1∆): 3.11 ± 0.22 | protein stability index (ubr1∆): 2.96 ± 0.19

YLSGAIPNQEVLQYSDW [YDL116W/NUP84]
protein stability index (doa10∆): 2.37 ± 0.12 | protein stability index (pdr5∆): 1.83 ± 0.074 | protein stability index (san1∆): 2.29 ± 0.051 | protein stability index (ubr1∆): 2 ± 0.071

PFGVSTIFGGVDKNGAH [PRE10]
protein stability index (doa10∆): 3.06 ± 0.076 | protein stability index (pdr5∆): 2.98 ± 0.069 | protein stability index (san1∆): 2.73 ± 0.12 | protein stability index (ubr1∆): 2.97 ± 0.049

VSNILSAFKFIHTQLSE [YJL039C/NUP192]
protein stability index (doa10∆): 2.19 ± 0.061 | protein stability index (pdr5∆): 1.92 ± 0.048 | protein stability index (san1∆): 1.47 ± 0.094 | protein stability index (ubr1∆): 1.58 ± 0.037

MSIGTGSFKVVKGTNIS [RPO31]
protein stability index (pdr5∆): 2.19 ± 0.15

DDQLKQRRQNIRDLEKL [RPT4]
protein stability index (doa10∆): 2.81 ± 0.23 | protein stability index (pdr5∆): 3.11 ± 0.29 | protein stability index (san1∆): 3.12 ± 0.13 | protein stability index (ubr1∆): 3.15 ± 0.16

LATRRVLQEYRLTKQAF [RPO21]
protein stability index (doa10∆): 2.99 ± 0.082 | protein stability index (pdr5∆): 3.1 ± 0.1 | protein stability index (san1∆): 3.01 ± 0.065 | protein stability index (ubr1∆): 3.17 ± 0.056

TLNPKTGHLFLKIIHTS [PRP8]
protein stability index (doa10∆): 2.44 ± 0.047 | protein stability index (pdr5∆): 1.91 ± 0.048 | protein stability index (san1∆): 1.77 ± 0.076 | protein stability index (ubr1∆): 1.84 ± 0.048

NSDDFFMDNSYDIDEID [ESC2]
protein stability index (doa10∆): 2.27 ± 0.058 | protein stability index (pdr5∆): 2.64 ± 0.077 | protein stability index (san1∆): 2.64 ± 0.075 | protein stability index (ubr1∆): 2.31 ± 0.051

QVASIIESFVELGVSIY [NUT2]
protein stability index (doa10∆): 2.77 ± 0.13 | protein stability index (pdr5∆): 2.98 ± 0.17 | protein stability index (san1∆): 2.2 ± 0.13 | protein stability index (ubr1∆): 1.76 ± 0.045

SHEERIEAIDEYNKPNS [ISW2]
protein stability index (doa10∆): 2.01 ± 0.063 | protein stability index (pdr5∆): 2.12 ± 0.054 | protein stability index (san1∆): 1.84 ± 0.076 | protein stability index (ubr1∆): 2.94 ± 0.039

PVSCIIQNDEEYDTPAL [PRP8]
protein stability index (doa10∆): 1.79 ± 0.1 | protein stability index (pdr5∆): 2.73 ± 0.077 | protein stability index (san1∆): 1.92 ± 0.093 | protein stability index (ubr1∆): 1.22 ± 0.086

SSHLSDNDFIINDFKKI [POP5]
protein stability index (doa10∆): 3.06 ± 0.077 | protein stability index (pdr5∆): 2.73 ± 0.067 | protein stability index (san1∆): 2.75 ± 0.055 | protein stability index (ubr1∆): 2.74 ± 0.036

HKDIPEEDFYTVVGNAS [DSN1]
protein stability index (doa10∆): 2.94 ± 0.091 | protein stability index (pdr5∆): 2.91 ± 0.18 | protein stability index (san1∆): 2.73 ± 0.1 | protein stability index (ubr1∆): 3.19 ± 0.062

NECQRLQNIVMDCTKEE [YIL149C/MLP2]
protein stability index (doa10∆): 2.61 ± 0.093 | protein stability index (pdr5∆): 3.47 ± 0.11 | protein stability index (san1∆): 3.66 ± 0.2 | protein stability index (ubr1∆): 3.4 ± 0.12

DENKDDELVKLLLDNGF [SRP68]
protein stability index (doa10∆): 3.05 ± 0.11 | protein stability index (pdr5∆): 3.4 ± 0.086 | protein stability index (san1∆): 3.36 ± 0.12 | protein stability index (ubr1∆): 3.31 ± 0.094

DATRVFVNGVWHGVHRN [RPB2]
protein stability index (doa10∆): 3.04 ± 0.093 | protein stability index (pdr5∆): 3.35 ± 0.071 | protein stability index (san1∆): 3.28 ± 0.048 | protein stability index (ubr1∆): 3.27 ± 0.066

IPKLKPAPINSLSRDFV [SNU114]
protein stability index (doa10∆): 2.92 ± 0.052 | protein stability index (pdr5∆): 2.8 ± 0.061 | protein stability index (san1∆): 2.68 ± 0.039 | protein stability index (ubr1∆): 2.75 ± 0.047

MAYTSHLSSKTGLHFGR [QCR10]
protein stability index (doa10∆): 3.08 ± 0.16 | protein stability index (pdr5∆): 2.78 ± 0.087 | protein stability index (san1∆): 2.69 ± 0.089 | protein stability index (ubr1∆): 2.76 ± 0.066

EGLELLGWIHTQTEELK [PRP8]
protein stability index (doa10∆): 2.94 ± 0.1 | protein stability index (pdr5∆): 2.65 ± 0.091 | protein stability index (san1∆): 3.16 ± 0.053 | protein stability index (ubr1∆): 3.29 ± 0.099

SFTNYITRSFKEPRLVI [RPS0A]
protein stability index (doa10∆): 2.74 ± 0.09 | protein stability index (pdr5∆): 2.79 ± 0.068 | protein stability index (san1∆): 2.55 ± 0.068 | protein stability index (ubr1∆): 2.83 ± 0.074

NSNDSVFVGSGKGTGKT [BRR2]
protein stability index (doa10∆): 3.36 ± 0.14 | protein stability index (pdr5∆): 3.27 ± 0.16 | protein stability index (san1∆): 3.32 ± 0.1 | protein stability index (ubr1∆): 3.33 ± 0.11

LIPDGRHLVNRGREEAA [PRE10]
protein stability index (pdr5∆): 1.41 ± 0.28

LQIHSRKMTTDDDINWQ [RPT5]
protein stability index (doa10∆): 3.09 ± 0.14 | protein stability index (pdr5∆): 3.12 ± 0.093 | protein stability index (san1∆): 2.93 ± 0.12 | protein stability index (ubr1∆): 3.06 ± 0.063

SASFSLKNGDKPHLLKF [RPL6B]
protein stability index (doa10∆): 2.4 ± 0.16 | protein stability index (pdr5∆): 2.42 ± 0.23 | protein stability index (san1∆): 3.25 ± 0.14 | protein stability index (ubr1∆): 3.42 ± 0.16

VIEAKINHEDGFIETTE [RPN3]
protein stability index (doa10∆): 1.17 ± 0.16 | protein stability index (pdr5∆): 1.37 ± 0.11 | protein stability index (san1∆): 1.3 ± 0.19 | protein stability index (ubr1∆): 1.13 ± 0.083

SNVYLSLVNSYIIDSPQ [COB]
protein stability index (doa10∆): 1.76 ± 0.047 | protein stability index (pdr5∆): 1.81 ± 0.056 | protein stability index (san1∆): 2.24 ± 0.071 | protein stability index (ubr1∆): 1.71 ± 0.052

KKAKLVLIANDVDPIEL [RPL8A]
protein stability index (doa10∆): 3.17 ± 0.15 | protein stability index (pdr5∆): 2.81 ± 0.068 | protein stability index (san1∆): 3.09 ± 0.07 | protein stability index (ubr1∆): 2.83 ± 0.072

YKWTQGINNLSEIWDVS [PRP8]
protein stability index (doa10∆): 3.03 ± 0.1 | protein stability index (pdr5∆): 2.9 ± 0.077 | protein stability index (san1∆): 3.12 ± 0.099 | protein stability index (ubr1∆): 2.44 ± 0.066

LIDFEYVNDVAIYNNPT [RRI2]
protein stability index (doa10∆): 2.73 ± 0.062 | protein stability index (pdr5∆): 2.92 ± 0.038 | protein stability index (san1∆): 2.67 ± 0.057 | protein stability index (ubr1∆): 2.95 ± 0.049

FPIALQWTGGRGGGHHS [FAS1]
protein stability index (doa10∆): 2.52 ± 0.18 | protein stability index (pdr5∆): 1.87 ± 0.23

RNFSLAIIDKNTGLTFK [PRE4]
protein stability index (doa10∆): 3.14 ± 0.068 | protein stability index (pdr5∆): 3.07 ± 0.071 | protein stability index (san1∆): 3.14 ± 0.043 | protein stability index (ubr1∆): 3.18 ± 0.058

LASFEKTTDHLFDAAFY [RPO31]
protein stability index (doa10∆): 2.9 ± 0.058 | protein stability index (pdr5∆): 2.79 ± 0.046 | protein stability index (san1∆): 2.96 ± 0.05 | protein stability index (ubr1∆): 3 ± 0.043

DKYHEQWIKFLLHTLYL [SSN8]
protein stability index (doa10∆): 2.62 ± 0.1 | protein stability index (pdr5∆): 2.2 ± 0.076 | protein stability index (san1∆): 1.93 ± 0.13 | protein stability index (ubr1∆): 2.43 ± 0.052
